In test [1] the target is T1, Soluble recombinant human urokinase receptor (suPAR) (human, UniProt Q03405 23-299, biotinylated in the plate assays (sites not given)). The experiment in a line: uPAR receptor binding assay.
Test [2] has as its target T1, Soluble recombinant human urokinase …. The experiment in a line: uPAR receptor binding assay. This is another data set of the same source.

Like-named read-outs stand apart in the source and are kept apart here. Ends that are not written are not given here.

A word on the IC50: it is the concentration that inhibits the measured activity by half.

T1 sequence (Q03405 23-299): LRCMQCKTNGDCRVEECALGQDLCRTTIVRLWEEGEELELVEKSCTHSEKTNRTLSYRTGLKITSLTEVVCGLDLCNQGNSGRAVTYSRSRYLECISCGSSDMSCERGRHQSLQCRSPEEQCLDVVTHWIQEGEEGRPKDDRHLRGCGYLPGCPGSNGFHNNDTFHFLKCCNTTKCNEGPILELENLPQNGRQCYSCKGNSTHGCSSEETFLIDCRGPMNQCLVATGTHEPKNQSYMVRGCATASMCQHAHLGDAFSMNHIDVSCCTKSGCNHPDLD

B1: Peptide 25 (synthetic peptide of clone 25) (peptide)
peptide: AESTYHHLSLGYMYTLN-NH2
Consider B1, for which the half-inhibitory concentration (IC50) in test [1] and in test [2] was more than 10000 nM throughout.

B2: uPA13-32 peptide (amino acids 13-32 of human urokinase with Cys19 converted to Ala) (peptide)
peptide: CLNGGTAVSNKYFSNIHWCN
On to B2, for which the half-inhibitory concentration (IC50) in test [1] and in test [2] was 250 nM each time.

B3: Clone 20 peptide (peptide)
peptide: AEPMPHSLNFSQYLWYT-NH2
Consider B3, for which the half-inhibitory concentration (IC50) in test [1] and in test [2] was 10 nM each time.

These data come from US20040265797A1 (published 2004).
